Measured values reported in article PMC6145371.

Target: tau repeat domain (TauRD) conjugated to cerulean fluorescent protein (CFP) or yellow fluorescent protein (YFP)
Assay: FRET or BRET; HEK293 biosensor cells with TauRD-CFP and TauRD-YFP; samples holding tau seeds (rTg4510 brain lysate 12 h, cell or microglia lysate 36 h, microglia conditioned media 72 h) added with 1% Lipofectamine; CFP to YFP FRET read by flow cytometry as integrated FRET density, normalised to cells given Lipofectamine only

“tau repeat domain (TauRD) conjugated to cerulean fluorescent protein (CFP) or yellow fluorescent protein (YFP)” showed a normalized integrated FRET density (cells given rTg4510 microglia lysate) (normalized IFD) of 308 and a normalized integrated FRET density (cells given rTg4510 non-microglia cell lysate) (normalized IFD) of 3570.
